B1: HDV Ribozyme (parent)
chain: GGCCGGCAUGGUCCCAGCCUCCUCGCUGGCGCCGGCUGGGCAACAUUCCGAGGGGACCGUCCCCUCGGUAAUGGCGAAUGGGACCCA

Variants of: B1
Assay: self-cleavage, relative activity (ratio to wild type); higher = more cleavage; co-transcriptional

Variant	self-cleavage
GACCGGCAUGGUCCCAGCCUCCUCGCUGGCGCCGGCUGGACAACAUUCCGAGGGGACCGUCCCCUCGGUAAUGGCGAAUGGGACCCA	0.136
GACCGGCAUGGUCCCAGCCUCCUCGCUGGCGCCGGCUGGCCAACAUUCCGAGGGGACCGUCCCCUCGGUAAUGGCGAAUGGGACCCA	0
GACCGGCAUGGUCCCAGCCUCCUCGCUGGCGCCGGCUGGUCAACAUUCCGAGGGGACCGUCCCCUCGGUAAUGGCGAAUGGGACCCA	0.0799
GACCGGCAUGGUCCCAGCCUCCUCGCUGGCGCCGGCUGGGCAACAUUCCUAGGGGACCGUCCCCUCGGUAAUGGCGAAUGGGACCCA	0.0779
GACCGGCAUGGUCCCAGCCUCCUCGCUGGCGCCGGCUGGGCAACAUUCCCAGGGGACCGUCCCCUCGGUAAUGGCGAAUGGGACCCA	0.205
GACCGGCAUGGUCCCAGCCUCCUCGCUGGCGCCGGCUAGGCAACAUUCCGAGGGGACCGUCCCCUCGGUAAUGGCGAAUGGGACCCA	0.0314
GACCGGCAUGGUCCCAGCCUCCUCGCUGGCGCCGGCUCGGCAACAUUCCGAGGGGACCGUCCCCUCGGUAAUGGCGAAUGGGACCCA	0.07
GACCGGCAUGGUCCCAGCCUCCUCGCUGGCGCCGGCUGGGCAACAUUCCGAGGGUACCGUCCCCUCGGUAAUGGCGAAUGGGACCCA	0.271
GACCGGCAUGGUCCCAGCCUCCUCGCUGGCGCCGGCUGGGCAACAUUCCGAGGGCACCGUCCCCUCGGUAAUGGCGAAUGGGACCCA	0.194
GACCGGCAUGGUCCCAGCCUCCUCGCUGGCGCCGGCUGGGCAACAUUCCGAGGGAACCGUCCCCUCGGUAAUGGCGAAUGGGACCCA	0.191
GACCGGCAUGGUCCCAGCCUCCUCGCUGGCGCCGGCUGGGCAACAUUCCGAGGGGACCGUCCCCUCGGUAAUGGCAAAUGGGACCCA	0.0391
GACCGGCAUGGUCCCAGCCUCCUCGCUGGCGCCGGCUGGGCAACAUUCCGAGGGGACCGUCCCCUCGGUAAUGGCCAAUGGGACCCA	0.225
GACCGGCAUGGUCCCAGCCUCCUCGCUGGCGCCGGCUGGGCAACAUUCCGAUGGGACCGUCCCCUCGGUAAUGGCGAAUGGGACCCA	0.201
GACCGGCAUGGUCCCAGCCUCCUCGCUGGCGCCGGCUGGGCAACAUUCCGAGGGGACCGUCCCCUCAGUAAUGGCGAAUGGGACCCA	0.11
GACCGGCAUGGUCCCAGCCUCCUCGCUGGCGCCGGCUGGGCAACAUUCCGAGGGGACCCUCCCCUCGGUAAUGGCGAAUGGGACCCA	0.244
GACCGGCAUGGUCCCAGCCUCCUCGCUGGCGCCGGCUGGGCAACAUUCCGAGGGGACCUUCCCCUCGGUAAUGGCGAAUGGGACCCA	0.19

Variant	self-cleavage
GACCGGCAUGGUCCCAGCCUCCUCGCUGGCGCCGGCUGGGCAACAUUCCGAGGCGACCGUCCCCUCGGUAAUGGCGAAUGGGACCCA	0.296
GACCGGCAUGGUCCCAGCCUCCUCGCUGGCGCCGGCUGGGCAACAUUCCGAGGUGACCGUCCCCUCGGUAAUGGCGAAUGGGACCCA	0.127
GACCGGCAUGGUCCCAGCCUCCUCGCUGGCGCCGGCUGGGCAACAUUCCGAGGAGACCGUCCCCUCGGUAAUGGCGAAUGGGACCCA	0.194
GACCGGCAUGGUCCCAGCCUCCUCGCUGGCGCCGGCUGGGCAACAUUCCGAGGGGACCGUCCCCUCGGUAAUGACGAAUGGGACCCA	0.0457
GACCGGCAUGGUCCCAGCCUCCUCGCUGGCUCCGGCUGGGCAACAUUCCGAGGGGACCGUCCCCUCGGUAAUGGCGAAUGGGACCCA	0.0205
GACCGGCAUGGUCCCAGCCUCCUCGCUGGCGCCGGCUGGGCAACAUUCCGAGGGGACCGUCCCCUCGAUAAUGGCGAAUGGGACCCA	0.185
GACCGGCAUGGUCCCAGCCUCCUCGCUGGCGCCGGCUGGGCAACAUUCCGAGGGGACCGUCCCCUCGUUAAUGGCGAAUGGGACCCA	0.0645
GACCGGCAUGGUCCCAGCCUCCUCGCUGGCGCCGGCUGGGCAACAUUCCGAGGGGACCGUCCCCUCGCUAAUGGCGAAUGGGACCCA	0.177
GACCGGCAUGGUCCCAGCCUCCUCGCUGGCGCCGGCUGGGCAACAUUCCGAGGGGACCGUCCCCUCGGUAAUCGCGAAUGGGACCCA	0.0608
GACCGGCAUGGUCCCAGCCUCCUCGCUGGCGCCGGCUGGGCAACAUUCCGAGUGGACCGUCCCCUCGGUAAUGGCGAAUGGGACCCA	0.145
GACCGGCAUGGUCCCAGCCUCCUCGCUGGCGCCUGCUGGGCAACAUUCCGAGGGGACCGUCCCCUCGGUAAUGGCGAAUGGGACCCA	0.0449
GACCGGCAUGGUCCCAGCCUCCUCGCUGGCGCCGGCUGGGCAACAUUCCGAGGGGACCGUCCCCUCGGUAAUGGCGAAUUGGACCCA	0.0227
GACCGGCAUGGUCCCAGCCUCCUCGCUGGCGCCGGCUGCGCAACAUUCCGAGGGGACCGUCCCCUCGGUAAUGGCGAAUGGGACCCA	0.0712
GACCGGCAUGGUCCCAGCCUCCUCGCUGGCGCCGGCUGUGCAACAUUCCGAGGGGACCGUCCCCUCGGUAAUGGCGAAUGGGACCCA	0.0305
GACCGGCAUGGUCCCAGCCUCCUCGCUGGCGCCGUCUGGGCAACAUUCCGAGGGGACCGUCCCCUCGGUAAUGGCGAAUGGGACCCA	0.0602
GACCGGCAUGGUCCCAGCCUCCUCGCUGGCGCCGACUGGGCAACAUUCCGAGGGGACCGUCCCCUCGGUAAUGGCGAAUGGGACCCA	0.0569

— the RNAGym collection of RNA variant scans (doi:10.7554/elife.80360)
